The values that follow come from patent US20240368283A1 (published 2024).

Assay [1] addresses T1, human FcγRIIβ (human, UniProt P31994 46-217, limits assumed).
T1 construct: also called FcγRIIb; R2b
T1 sequence (looked up): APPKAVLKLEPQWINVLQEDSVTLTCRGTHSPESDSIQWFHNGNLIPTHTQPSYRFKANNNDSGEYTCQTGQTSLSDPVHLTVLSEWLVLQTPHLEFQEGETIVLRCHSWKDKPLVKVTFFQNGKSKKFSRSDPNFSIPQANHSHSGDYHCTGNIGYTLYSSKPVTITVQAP
Briefly: SPR, antibody captured on ProA/G HC30M chip, recombinant human FcγRIIβ injected (4 nM-5 uM); average kinetic KD. How it is done:
(§1) Example 52: The binding of anti-FcγRIIβ antibodies to human FcγRIIβ was evaluated. Antibodies were captured on ProA/G HC30M chip at 5 ug/mL, 1 ug/mL, and 0.2 ug/mL for 15 minutes. Six buffer injections were made over the chip followed by injections of increasing concentrations of recombinant human FcγRIIβ (4 nm-5 uM). The association was measured during each injection for 5 minutes and the dissociation was measured for 10 minutes post injection with buffer flow (1×HBSTE+ BSA).

Assay [2] has as its target T1, human FcγRIIβ. Briefly: SPR, antibody captured on ProA/G HC30M chip, recombinant human FcγRIIβ injected (4 nM-5 uM); average steady state KD. How it is done:
as §1

The target in assay [3] is PD-1 (in the reporter cells of the PD-1 agonism assay) (Homo sapiens (Human), UniProt Q15116 25-288). Briefly: cell-based or functional assay.
The target of assay [4] is T1, human FcγRIIβ. Put plainly: Fc receptor affinity, Table 29 (method for Fc receptors not told in Example 43).
Another assay addresses FcγRI. The description is as above.
The next assay addresses T2, Recombinant human PD-1 (human, UniProt Q15116 25-170, limits assumed).
T2 construct: Soluble recombinant analyte in BLI; also called huPD1
Put plainly: BLI (Octet RED96), antibody captured on anti-human IgG Fc biosensors, PD-1 titrated; steady state (footnote *).

A further assay has as its target T3, Cyno PD-1 (cyno).
T3 construct: also called cynomolgus PD-1; cyPD1
The assay is described as above.

Assay [5] addresses T1, human FcγRIIβ. Put plainly: ratio of KD on FcγRIIα R131 to KD on FcγRIIβ, Table 29.

PD-1 (in the reporter cells of the PD-1 agonism assay), sequence (Q15116 25-288 limits assumed): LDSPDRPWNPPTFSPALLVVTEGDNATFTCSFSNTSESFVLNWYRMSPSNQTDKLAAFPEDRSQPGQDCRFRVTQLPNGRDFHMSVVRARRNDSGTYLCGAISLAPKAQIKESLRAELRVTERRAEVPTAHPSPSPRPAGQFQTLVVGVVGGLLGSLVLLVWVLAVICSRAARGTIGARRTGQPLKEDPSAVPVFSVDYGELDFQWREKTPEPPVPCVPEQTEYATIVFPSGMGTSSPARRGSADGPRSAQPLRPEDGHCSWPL
FcγRI, sequence (P12314 16-292): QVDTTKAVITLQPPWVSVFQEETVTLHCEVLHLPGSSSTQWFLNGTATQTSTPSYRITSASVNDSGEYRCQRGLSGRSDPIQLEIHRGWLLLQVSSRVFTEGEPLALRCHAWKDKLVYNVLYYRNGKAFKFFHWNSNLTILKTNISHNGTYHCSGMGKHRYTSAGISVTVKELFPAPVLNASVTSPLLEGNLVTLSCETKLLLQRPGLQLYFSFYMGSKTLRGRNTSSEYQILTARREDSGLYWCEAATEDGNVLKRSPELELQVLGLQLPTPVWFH
T2 sequence (Q15116 25-170 limits assumed): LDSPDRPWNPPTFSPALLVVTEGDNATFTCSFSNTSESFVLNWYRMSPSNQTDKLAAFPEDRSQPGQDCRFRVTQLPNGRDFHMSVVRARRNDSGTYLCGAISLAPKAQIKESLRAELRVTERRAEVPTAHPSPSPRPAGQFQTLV

B1: ARB49 (antibody, human IgG1, kappa)
heavy: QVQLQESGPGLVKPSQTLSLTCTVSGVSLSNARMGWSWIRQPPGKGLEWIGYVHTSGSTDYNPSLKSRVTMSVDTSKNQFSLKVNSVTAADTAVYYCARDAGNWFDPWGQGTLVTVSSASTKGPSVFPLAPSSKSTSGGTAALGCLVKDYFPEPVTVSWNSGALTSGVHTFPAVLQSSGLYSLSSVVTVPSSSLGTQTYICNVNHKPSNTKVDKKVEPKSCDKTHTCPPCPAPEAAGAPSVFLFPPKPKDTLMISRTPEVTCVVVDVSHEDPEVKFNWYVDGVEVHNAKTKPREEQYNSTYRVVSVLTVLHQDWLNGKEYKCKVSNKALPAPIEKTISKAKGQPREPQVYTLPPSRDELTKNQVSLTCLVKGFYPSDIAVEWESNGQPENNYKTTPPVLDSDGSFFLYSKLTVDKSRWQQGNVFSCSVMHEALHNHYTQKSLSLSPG
light: EIVMTQSPATLSLSPGERATLSCRASQSLSSSHLAWYQQKPGQAPRLLIYDASIRVPGIPARFSGSGSGTDFTLTISSLEPEDFAVYYCQQYAVPPITFGGGTKVEIKRTVAAPSVFIFPPSDEQLKSGTASVVCLLNNFYPREAKVQWKVDNALQSGNSQESVTEQDSKDSTYSLSSTLTLSKADYEKHKVYACEVTHQGLSSPVTKSFNRGEC
notes: copies: 2 + 2
Regarding B1, the dissociation constant (Kd) with human FcγRIIβ [1] is 37.3 nM; in the assay with human FcγRIIβ [2] it was 40 nM.

B2: ARB40 (antibody, human IgG1, kappa)
heavy: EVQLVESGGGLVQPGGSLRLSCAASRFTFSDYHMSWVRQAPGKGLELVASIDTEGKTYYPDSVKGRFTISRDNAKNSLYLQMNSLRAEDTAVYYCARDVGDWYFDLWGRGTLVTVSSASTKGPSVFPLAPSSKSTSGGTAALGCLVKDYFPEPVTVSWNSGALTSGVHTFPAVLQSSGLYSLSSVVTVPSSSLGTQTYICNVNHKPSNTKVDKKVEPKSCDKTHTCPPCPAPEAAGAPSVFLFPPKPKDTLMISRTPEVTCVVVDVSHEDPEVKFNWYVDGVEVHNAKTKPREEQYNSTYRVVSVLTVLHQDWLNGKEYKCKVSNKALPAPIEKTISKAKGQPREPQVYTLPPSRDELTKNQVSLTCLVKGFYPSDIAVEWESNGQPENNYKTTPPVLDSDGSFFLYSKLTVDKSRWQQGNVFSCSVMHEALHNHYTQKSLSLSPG
light: DIVMTQSPLSLPVTPGEPASISCRSSRSLVHGSGDNYLHWYLQKPGQSPQLLIYMASNRAPGVPDRFSGSGSGTDFTLKISRVEAEDVGVYYCMQALRAPFSFGGGTKVEIKRTVAAPSVFIFPPSDEQLKSGTASVVCLLNNFYPREAKVQWKVDNALQSGNSQESVTEQDSKDSTYSLSSTLTLSKADYEKHKVYACEVTHQGLSSPVTKSFNRGEC
notes: copies: 2 + 2
As for B2, the dissociation constant (Kd) with human FcγRIIβ [1] and in the assay with human FcγRIIβ [2] was 120 nM throughout.

B3: TA359 (antibody, human IgG1, lambda)
heavy: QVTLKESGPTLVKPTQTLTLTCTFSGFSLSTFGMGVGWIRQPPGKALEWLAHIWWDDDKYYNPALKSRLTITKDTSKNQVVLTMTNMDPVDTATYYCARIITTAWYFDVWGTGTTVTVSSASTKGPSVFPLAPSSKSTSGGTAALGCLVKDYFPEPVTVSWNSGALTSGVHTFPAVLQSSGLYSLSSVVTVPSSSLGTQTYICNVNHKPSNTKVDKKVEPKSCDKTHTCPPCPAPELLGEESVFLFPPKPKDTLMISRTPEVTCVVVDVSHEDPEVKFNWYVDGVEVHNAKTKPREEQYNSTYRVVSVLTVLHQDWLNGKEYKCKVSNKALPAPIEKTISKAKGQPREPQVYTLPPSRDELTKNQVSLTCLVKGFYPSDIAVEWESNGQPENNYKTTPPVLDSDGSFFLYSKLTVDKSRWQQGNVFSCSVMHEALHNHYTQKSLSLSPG
light: QAVVTQEPSLTVSPGGTVTLTCRSSTGAVTTSNYANWVQQKPGQAFRGLIGGTNNRAPGVPDRFSGSILGNKAALTITGAQADDESDYYCALWYSNHFIFGSGTKVTVLGQPKAAPSVTLFPPSSEELQANKATLVCLISDFYPGAVTVAWKADSSPVKAGVETTTPSKQSNNKYAASSYLSLTPEQWKSHRSYSCQVTHEGSTVEKTVAPTECS
With B3, the Emax in assay [3] turned out to be 2.2. In addition, the “log EC50” value in assay [3] was -8.3. Moreover, the Kd in the assay with human FcγRIIβ [4] stood at 3.1 µM; with Recombinant human PD-1, 1000 nM; with Cyno PD-1 it was 600 nM. Besides, the “Affinity to RI relative to WT” value with FcγRI is above 10 fold lower than WT.

B4: TA322 (antibody, human IgG1, kappa)
heavy: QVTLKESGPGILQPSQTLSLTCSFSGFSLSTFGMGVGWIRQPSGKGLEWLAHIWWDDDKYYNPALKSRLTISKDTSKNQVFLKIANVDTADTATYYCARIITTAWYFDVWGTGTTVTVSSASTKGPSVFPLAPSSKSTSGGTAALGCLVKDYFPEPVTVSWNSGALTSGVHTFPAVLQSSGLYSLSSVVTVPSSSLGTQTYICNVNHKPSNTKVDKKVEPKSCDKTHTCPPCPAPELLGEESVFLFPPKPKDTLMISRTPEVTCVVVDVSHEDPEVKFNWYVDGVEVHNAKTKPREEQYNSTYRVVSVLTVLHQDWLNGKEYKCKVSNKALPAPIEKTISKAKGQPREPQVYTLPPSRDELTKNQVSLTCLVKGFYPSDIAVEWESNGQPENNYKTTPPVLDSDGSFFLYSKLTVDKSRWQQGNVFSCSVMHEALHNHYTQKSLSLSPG
light: QAVVTQESALTTSPGETVTLTCRSSTGAVTTSNYANWVQEKPDHLFTGLIGGTNNRAPGVPARFSGSLIGDKAALTITGAQTEDEAIYFCALWYSNHFIFGSGTKVTVLRTVAAPSVFIFPPSDEQLKSGTASVVCLLNNFYPREAKVQWKVDNALQSGNSQESVTEQDSKDSTYSLSSTLTLSKADYEKHKVYACEVTHQGLSSPVTKSFNRGEC
In the case of B4, in assay [3], the Emax was determined as 2.1 and the “log EC50” value is -8.3. Also, the “R131/2b (fold)” value in the assay with human FcγRIIβ [5] is 9.7 fold. In addition, in the assay with human FcγRIIβ [4], the Kd was determined as 3.5 µM. Further, the “Affinity to RI relative to WT” value with FcγRI was above 10 fold lower than WT.
